Assay results as given in US20190203248A1 (Bristol-Myers Squibb, published 2019).
Positions of bridges follow the written chain, without caps; N, C: chain ends. No end group written: not given here.

What was measured:
human β-klotho = human β-klotho (human, UniProt Q86Z14 1-1044); assay: cell-based or functional assay
[1] = molecular target: β-klotho of differentiated 3T3-L1 adipocytes (mouse) (UniProt Q99N32); assay: cell-based or functional assay
human serum albumin [2] = molecular target: T1, human serum albumin (human, UniProt P02768 25-609); assay: SPR (Biacore T100), HSA immobilized, 37 C, 30 µl/min
T1 construct: also called HSA; HuSA
Method: (§1) Serum albumins were dissolved in PBS buffer (10 mM sodium phosphate, 130 mM sodium chloride, pH 7.1) to a concentration of 10 mg/ml, and subsequently diluted to 8-10 μg/ml in 10 mM sodium acetate pH 5.0 for immobilization. Serum albumins were immobilized on a Series S CM5 sensor chip using standard ethyl(dimethylaminopropyl) carbodiimide (EDC)/N-hydroxysuccinimide (NHS) chemistry in HBS-EP+ running buffer at 25° C., following general manufacturer guidelines. Flow cell 1 was activated with EDC/NHS and blocked with ethanolamine. […] Kinetic experiments were performed in PBS buffer containing 0.05% tween-20 (running buffer) at either 25° C. or 37° C. […] These samples were injected across flow cells 1-4 for 300 s, with a 420 s dissociation time, at flow rates of 30 μl/min or 60 μl/min to check for mass transfer limitation. All surfaces were regenerated with 2 pulses of 10 mM glycine pH 2.0 at 30 μl/min for 30 s. Raw sensograms were “double-referenced” by subtracting flow cell 1 data from flow cell 2, 3 or 4 data, and then subtracting a separate buffer cycle from each sensogram. The double-referenced sensogram data was fitted to a 1:1 Langmuir model using Biacore T100 Evaluation software version 2.0.2 to determine the association rate constant (ka), the dissociation rate constant (kd), and the equilibrium dissociation constant (KD).

human serum albumin [3] = molecular target: T1, human serum albumin; assay: SPR (Biacore T100), HSA immobilized, 37 C, 60 µl/min
Method: as §1

[4] = molecular target: T2, cynomolgous monkey serum albumin (cynomolgous monkey, UniProt A2V9Z4 25-608); assay: SPR (Biacore T100), CySA immobilized, 37 C, 30 µl/min
T2 construct: also called CySA
T2 sequence (A2V9Z4 25-608 limits assumed): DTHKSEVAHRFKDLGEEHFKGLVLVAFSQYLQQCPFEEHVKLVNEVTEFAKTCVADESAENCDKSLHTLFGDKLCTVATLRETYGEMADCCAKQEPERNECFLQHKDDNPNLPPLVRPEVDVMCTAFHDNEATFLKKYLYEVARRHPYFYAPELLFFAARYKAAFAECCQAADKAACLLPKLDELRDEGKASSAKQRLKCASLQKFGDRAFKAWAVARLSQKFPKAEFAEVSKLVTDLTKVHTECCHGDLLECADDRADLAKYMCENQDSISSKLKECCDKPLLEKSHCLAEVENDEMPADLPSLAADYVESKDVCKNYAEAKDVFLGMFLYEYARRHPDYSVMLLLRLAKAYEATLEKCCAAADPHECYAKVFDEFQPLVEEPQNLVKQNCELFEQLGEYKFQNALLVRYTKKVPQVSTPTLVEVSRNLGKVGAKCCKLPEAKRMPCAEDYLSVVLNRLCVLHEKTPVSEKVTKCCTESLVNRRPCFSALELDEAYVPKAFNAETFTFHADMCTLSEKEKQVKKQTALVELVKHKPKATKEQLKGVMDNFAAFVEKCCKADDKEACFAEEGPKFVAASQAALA
Method: as §1

[5] = molecular target: T2, cynomolgous monkey serum albumin; assay: SPR (Biacore T100), CySA immobilized, 37 C, 60 µl/min
Method: as §1

murine serum albumin [6] = molecular target: T3, murine serum albumin (mouse, UniProt P07724 25-608); assay: SPR (Biacore T100), immobilized MuSA, analyte series 1000 to 62.5 nM, 37 C
T3 construct: also called MuSA; mouse serum albumin
T3 sequence (P07724 25-608 limits assumed): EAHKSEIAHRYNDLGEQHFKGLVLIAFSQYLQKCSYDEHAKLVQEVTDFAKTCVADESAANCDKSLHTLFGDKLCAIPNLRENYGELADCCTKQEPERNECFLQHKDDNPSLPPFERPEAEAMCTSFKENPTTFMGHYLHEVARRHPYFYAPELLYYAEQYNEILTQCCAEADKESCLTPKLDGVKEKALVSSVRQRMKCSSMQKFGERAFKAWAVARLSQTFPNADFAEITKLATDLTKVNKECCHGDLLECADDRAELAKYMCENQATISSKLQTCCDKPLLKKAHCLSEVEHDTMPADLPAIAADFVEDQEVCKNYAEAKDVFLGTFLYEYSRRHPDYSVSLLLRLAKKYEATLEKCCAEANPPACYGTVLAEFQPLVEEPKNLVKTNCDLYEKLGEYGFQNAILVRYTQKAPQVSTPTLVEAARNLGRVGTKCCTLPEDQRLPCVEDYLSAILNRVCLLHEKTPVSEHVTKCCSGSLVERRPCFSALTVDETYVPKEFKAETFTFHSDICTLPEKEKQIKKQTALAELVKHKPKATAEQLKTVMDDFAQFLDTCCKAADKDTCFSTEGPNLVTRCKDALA
Method: as §1

murine serum albumin [7] = molecular target: T3, murine serum albumin; assay: SPR (Biacore), albumin immobilized on CM5 chip
Method: (§3) In addition, binding to albumin was carried out under various pH conditions ranging from pH 5.5 to pH 7.4.

human serum albumin [8] = molecular target: T1, human serum albumin; assay: SPR (Biacore), albumin immobilized on CM5 chip
Method: as §3

rhesus serum albumin = molecular target: T4, rhesus serum albumin (rhesus, UniProt Q28522 17-600); assay: SPR (Biacore), albumin immobilized on CM5 chip
T4 construct: also called RhSA
T4 sequence (Q28522 17-600 limits assumed): as the sequence (A2V9Z4 25-608 limits assumed) above
Method: as §3

human NPY Y4 receptor = human NPY Y4 receptor (human, UniProt P50391 1-375); assay: cell-based or functional assay
human NPY Y4 receptor, sequence (P50391 whole entry): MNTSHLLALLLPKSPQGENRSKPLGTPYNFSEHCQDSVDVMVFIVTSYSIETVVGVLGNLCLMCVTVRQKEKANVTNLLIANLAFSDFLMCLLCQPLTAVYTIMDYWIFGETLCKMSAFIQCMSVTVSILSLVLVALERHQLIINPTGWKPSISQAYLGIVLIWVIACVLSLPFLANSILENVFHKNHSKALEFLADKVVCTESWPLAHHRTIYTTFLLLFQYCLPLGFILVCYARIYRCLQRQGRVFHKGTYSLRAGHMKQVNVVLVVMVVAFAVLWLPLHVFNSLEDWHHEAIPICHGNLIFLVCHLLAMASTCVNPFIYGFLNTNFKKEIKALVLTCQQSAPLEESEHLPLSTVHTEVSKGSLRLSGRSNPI

Amylin receptor = Amylin receptor (chimpanzee; human, UniProt O60894 27-148); assay: cell-based or functional assay
Amylin receptor, sequence (O60894 27-148): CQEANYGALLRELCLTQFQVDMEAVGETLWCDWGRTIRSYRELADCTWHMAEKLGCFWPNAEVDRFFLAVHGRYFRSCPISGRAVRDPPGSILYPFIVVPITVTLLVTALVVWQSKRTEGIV

human serum albumin [9] = molecular target: T1, human serum albumin; assay: Affinity for hSA by SPR (same value as in Table 21)
Method: (§2) Surface Plasmon Resonance (SPR) is a direct binding technique by which molecular interactions can be observed in real time. For these experiments, SPR binding studies were performed using a ProteOn XPR36 instrument (BioRad Laboratories). The running buffer, phosphate buffered saline 0.05% Tween 20 pH 7.4, was purchased from Teknova (cat #P1192) and all experiments were run at 25° C. Human serum albumin was directly immobilized on a BioRad GLC chip via amine coupling as per manufacturer's guidelines using amine coupling reagents purchased from BioRad Laboratories. Human serum albumin was purchased from Novozymes (Recombumin™). About 5000 resonance units (RU) of human serum albumin were immobilized onto 4 separate lanes of the GLC chip surface. […] The dissociation was monitored for 600 seconds. The surface was regenerated with 100 mM HCl. The resultant data were fitted to a Langumuir 1:1 binding model using the ProteOn Manager Software. The experiment was repeated with a different concentration range. In this second experiment, 5 concentrations ranging from 500 nM to 32 nM were injected over the surfaces, and the data analyzed as above. The KD is the disassociation constant. Smaller numbers indicate tighter binding to serum albumin.

human serum albumin [10] = molecular target: T1, human serum albumin; assay: SPR (ProteOn XPR36), HSA immobilized on GLC chip, 25 C
Method: as §2

human NPY Y2 receptor = molecular target: T5, human NPY Y2 receptor (human, UniProt P49146 1-381); assay: cell-based or functional assay
T5 sequence (looked up): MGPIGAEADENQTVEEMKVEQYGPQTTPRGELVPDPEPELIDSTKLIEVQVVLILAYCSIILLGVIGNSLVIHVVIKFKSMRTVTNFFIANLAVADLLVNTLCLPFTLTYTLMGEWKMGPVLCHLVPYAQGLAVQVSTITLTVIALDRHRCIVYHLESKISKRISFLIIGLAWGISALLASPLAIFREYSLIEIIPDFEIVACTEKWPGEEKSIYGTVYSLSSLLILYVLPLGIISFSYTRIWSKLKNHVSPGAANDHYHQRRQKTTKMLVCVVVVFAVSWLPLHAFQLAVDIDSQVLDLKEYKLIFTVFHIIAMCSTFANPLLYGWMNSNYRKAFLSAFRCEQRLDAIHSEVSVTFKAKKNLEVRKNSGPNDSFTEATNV

β-klotho of differentiated 3T3-L1 adipocytes (mouse), sequence (Q99N32 whole entry): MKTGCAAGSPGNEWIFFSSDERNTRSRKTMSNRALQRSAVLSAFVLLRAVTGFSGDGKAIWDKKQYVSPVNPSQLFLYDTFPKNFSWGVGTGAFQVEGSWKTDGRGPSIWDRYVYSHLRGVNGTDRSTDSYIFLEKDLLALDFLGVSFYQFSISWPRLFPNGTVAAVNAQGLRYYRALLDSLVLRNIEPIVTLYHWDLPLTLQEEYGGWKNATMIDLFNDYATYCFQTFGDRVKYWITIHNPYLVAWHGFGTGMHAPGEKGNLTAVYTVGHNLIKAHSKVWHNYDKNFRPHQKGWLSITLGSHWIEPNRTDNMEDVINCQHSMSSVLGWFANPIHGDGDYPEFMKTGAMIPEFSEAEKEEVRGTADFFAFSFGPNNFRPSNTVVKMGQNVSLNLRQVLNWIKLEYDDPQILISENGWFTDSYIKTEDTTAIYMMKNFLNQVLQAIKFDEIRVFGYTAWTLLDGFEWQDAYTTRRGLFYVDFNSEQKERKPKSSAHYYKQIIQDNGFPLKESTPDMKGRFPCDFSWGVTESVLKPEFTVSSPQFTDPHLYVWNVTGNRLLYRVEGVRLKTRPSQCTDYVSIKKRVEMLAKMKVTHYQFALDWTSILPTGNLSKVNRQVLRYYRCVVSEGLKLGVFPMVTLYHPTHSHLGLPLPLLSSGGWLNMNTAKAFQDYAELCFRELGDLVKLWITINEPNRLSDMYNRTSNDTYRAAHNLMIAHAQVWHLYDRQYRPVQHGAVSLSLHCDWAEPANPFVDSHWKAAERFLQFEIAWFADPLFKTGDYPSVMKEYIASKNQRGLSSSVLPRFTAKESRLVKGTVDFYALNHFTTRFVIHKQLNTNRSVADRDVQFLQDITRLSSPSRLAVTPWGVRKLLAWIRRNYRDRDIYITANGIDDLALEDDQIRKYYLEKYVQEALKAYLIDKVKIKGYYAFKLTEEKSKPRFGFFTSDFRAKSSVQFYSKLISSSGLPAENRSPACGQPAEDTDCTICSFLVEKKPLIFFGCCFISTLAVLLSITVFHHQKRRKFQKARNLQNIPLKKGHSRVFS

Molecule: His-tagged FGF21 (from UniProt Q9NSA1 29-209) (ligand)
- EC50 (nM), pERK 1/2 assay in HEK β-Klotho expressing stable cells (human β-klotho): 7 nM
- Efficacy (%), pERK 1/2 assay in HEK β-Klotho expressing stable cells (human β-klotho): 100%
- EC50 (nM), pERK assay in 3T3-L1 adipocytes [1]: 4 nM
- Fold Activation, pERK assay in 3T3-L1 adipocytes [1]: 2.1 fold

B1: SABA1-FGF21v3 (designed binder)
chain: MGVSDVPRDLEVVAATPTSLLISWHSYYEQNSYYRITYGETGGNSPVQEFTVPYSQTTATISGLKPGVDYTITVYAVYGSKYYYPISINYRTEIDKPSQHHHHHHGSGSGSGSGSGSGSPIPDSSPLLQFGGQVRQRYLYTDDAQQTEAHLEIREDGTVGGAADQSPESLLQLKALKPGVIQILGVKTSRFLCQRPDGALYGSLHFDPEACSFRELLLEDGYNVYQSEAHGLPLHLPGNKSPHRDPAPRGPARFLPLPGLPPALPEPPGILAPQPPDVGSSDPLSMVGPSQGRSPSYAS
notes: Fusion of SABA1 and FGF21; also called SABA1-FGF21 variant 3
- Kd (human serum albumin [2]): 170 nM
- koff (human serum albumin [2]): 0.00103 s⁻¹
- kon (human serum albumin [2]): 6160 M⁻¹ s⁻¹
- Kd (human serum albumin [3]): 180 nM
- koff (human serum albumin [3]): 0.00107 s⁻¹
- kon (human serum albumin [3]): 5870 M⁻¹ s⁻¹
- Kd [4]: 2200 nM
- koff [4]: 0.0117 s⁻¹
- kon [4]: 5310 M⁻¹ s⁻¹
- Kd [5]: 3100 nM
- koff [5]: 0.0136 s⁻¹
- kon [5]: 4380 M⁻¹ s⁻¹
- binding result (murine serum albumin [6]): no binding (tested: 1000 nM)

B2: SABA3.1 (designed binder)
chain: MGVSDVPRDLEVVAATPTSLLISWSNDGPGLSYYRITYGETGGNSPVQEFTVPSSQTTATISGLKPGVDYTITVYAVSYYTKKAYSAGPISINYRTEIDKPSQHHHHHH
notes: His6-tagged Adnectin core 3
- binding result (murine serum albumin [7]): no binding
- Kd (human serum albumin [8]): 863 nM
- koff (human serum albumin [8]): 0.0682 s⁻¹
- Kd (rhesus serum albumin): 431 nM
- koff (rhesus serum albumin): 0.0337 s⁻¹

B3: PP Control Peptide (peptide)
peptide: APLEPMYPGDYATPEQMAQYETQLRRYINTLTRPRY-NH2
- Potency (EC50, nM), GTPγS binding functional assay (human NPY Y4 receptor): 1.7 nM

B4: SABA4.1 (designed binder)
chain: MGVSDVPRDLEMVAATPTSLLISWEDDSYYSRYYRITYGETGGNSPVQEFTVPSDLYTATISGLKPGVDYTITVYAVTYDVTDLIMHEPISINYRTEIDKPSQHHHHHH
notes: His6-tagged Adnectin core 4; has a scaffold mutation; the scaffold-perfect version is SABA5
- binding result (murine serum albumin [7]): no binding
- Kd (human serum albumin [8]): 412 nM
- koff (human serum albumin [8]): 0.000782 s⁻¹
- Kd (rhesus serum albumin): > 1000 nM
- koff (rhesus serum albumin): 0.00383 s⁻¹

B5: SABA1-AMYv25 (designed binder)
chain: MGVSDVPRDLEVVAATPTSLLISWHSYYEQNSYYRITYGETGGNSPVQEFTVPYSQTTATISGLKPGVDYTITVYAVYGSKYYYPISINYRTEIEDEDEDEDEDGC
modifications: Maleimide-PEG20 spacer (X1) between the Cys after (ED)5G and AMYv5 (rat amylin); C-terminal amidation; disulfide bridge between the two Cys residues of amylin
notes: also called SABA-Amylin-CONH2 conjugate; SABA1.7-(ED)5G-Cys-PEG20-Amylin-CONH2
- Cell based Potency (EC50, nM), cellular cAMP assay (Amylin receptor): 12.2 nM
- Efficacy (% of native peptide ligand maximal activity), cellular cAMP assay (Amylin receptor): 119%
- Kd (human serum albumin [9]): 25.8 nM
- Kd (human serum albumin [10]): 25.8 nM
- koff (human serum albumin [10]): 0.000241 s⁻¹
- kon (human serum albumin [10]): 9340 M⁻¹ s⁻¹

B6: SABA1-PYYv7 (designed binder)
chain: MGVSDVPRDLEVVAATPTSLLISWHSYYEQNSYYRITYGETGGNSPVQEFTVPYSQTTATISGLKPGVDYTITVYAVYGSKYYYPISINYRTEIEDEDEDEDEDGC
modifications: Maleimide-PEG20 spacer (X1) between the Cys after (ED)5G and PYYv17 (mouse PYY3-36); C-terminal amidation
notes: also called SABA-PYY3-36-CONH2 conjugate; SABA1.7-(ED)5G-Cys-PEG20-PYY-CONH2
- Potency (EC50, nM), GTPγS binding functional assay (human NPY Y2 receptor): 52 nM
- Kd (human serum albumin [9]): 22.5 nM
- Kd (human serum albumin [10]): 22.5 nM
- koff (human serum albumin [10]): 0.000208 s⁻¹
- kon (human serum albumin [10]): 9290 M⁻¹ s⁻¹

B7: SABA1-PPv7 (designed binder)
chain: MGVSDVPRDLEVVAATPTSLLISWHSYYEQNSYYRITYGETGGNSPVQEFTVPYSQTTATISGLKPGVDYTITVYAVYGSKYYYPISINYRTEIEDEDEDEDEDGC
modifications: Maleimide-PEG20 spacer (X1) between the Cys after (ED)5G and PPv9 (mouse PP); C-terminal amidation
notes: also called SABA-PP-CONH2 conjugate; SABA1-APPv7
- Potency (EC50), GTPγS binding functional assay (human NPY Y4 receptor): > 1000 nM
- Kd (human serum albumin [9]): 18.8 nM
- Kd (human serum albumin [10]): 18.8 nM
- koff (human serum albumin [10]): 0.000142 s⁻¹
- kon (human serum albumin [10]): 7880 M⁻¹ s⁻¹

B8: SABA2.1 (designed binder)
chain: MGVSDVPRDLEVVAATPTSLLISWPKYDKTGHYYRITYGETGGNSPVQEFTVPTRQTTATISGLKPGVDYTITVYAVSKDDYYPHEHRPISINYRTEIDKPSQHHHHHH
notes: His6-tagged Adnectin core 2
- binding result (murine serum albumin [7]): no binding
- Kd (human serum albumin [8]): 33.8 nM
- koff (human serum albumin [8]): 0.000171 s⁻¹
- Kd (rhesus serum albumin): 63.6 nM
- koff (rhesus serum albumin): 0.000442 s⁻¹

B9: SABA1.1 (designed binder)
chain: MGVSDVPRDLEVVAATPTSLLISWHSYYEQNSYYRITYGETGGNSPVQEFTVPYSQTTATISGLKPGVDYTITVYAVYGSKYYYPISINYRTEIDKPSQHHHHHH
- binding result (murine serum albumin [7]): no binding
- Kd (human serum albumin [8]): 47.2 nM
- koff (human serum albumin [8]): 0.000457 s⁻¹
- Kd (rhesus serum albumin): 778 nM
- koff (rhesus serum albumin): 0.00545 s⁻¹

B10: Amylin Control Peptide (peptide)
peptide: KCNTATCATQRLANFLVRSSNNLGPVLPPTNVGSNTY-NH2
modifications: disulfide 2-7
- Efficacy (% of native peptide ligand maximal activity), cellular cAMP assay (Amylin receptor): 100%
